# T1: tail tube protein gpV (bacteriophage lambda), P03733
# T1 chain: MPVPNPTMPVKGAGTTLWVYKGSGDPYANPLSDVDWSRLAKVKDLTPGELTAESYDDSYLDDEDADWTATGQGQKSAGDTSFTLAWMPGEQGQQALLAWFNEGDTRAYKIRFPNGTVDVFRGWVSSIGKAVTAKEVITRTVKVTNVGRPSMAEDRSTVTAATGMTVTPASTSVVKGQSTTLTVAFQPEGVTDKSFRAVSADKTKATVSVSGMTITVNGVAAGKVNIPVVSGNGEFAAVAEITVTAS
# T2: cementing protein gpD (bacteriophage lambda), P03712
# T2 chain: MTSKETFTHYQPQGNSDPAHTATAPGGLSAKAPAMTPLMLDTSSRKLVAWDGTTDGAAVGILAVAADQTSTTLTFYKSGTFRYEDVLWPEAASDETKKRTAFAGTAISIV
# B1: tail tube protein gpV, P03733 1-246 (natural protein)
# chain: T1 chain
# B2: central fiber protein gpJ (natural protein, bacteriophage lambda, UniProt P03749 1-1132, looked up)
# chain: MGKGSSKGHTPREAKDNLKSTQLLSVIDAISEGPIEGPVDGLKSVLLNSTPVLDTEGNTNISGVTVVFRAGEQEQTPPEGFESSGSETVLGTEVKYDTPITRTITSANIDRLRFTFGVQALVETTSKGDRNPSEVRLLVQIQRNGGWVTEKDITIKGKTTSQYLASVVMGNLPPRPFNIRMRRMTPDSTTDQLQNKTLWSSYTEIIDVKQCYPNTALVGVQVDSEQFGSQQVSRNYHLRGRILQVPSNYNPQTRQYSGIWDGTFKPAYSNNMAWCLWDMLTHPRYGMGKRLGAADVDKWALYVIGQYCDQSVPDGFGGTEPRITCNAYLTTQRKAWDVLSDFCSAMRCMPVWNGQTLTFVQDRPSDKTWTYNRSNVVMPDDGAPFRYSFSALKDRHNAVEVNWIDPNNGWETATELVEDTQAIARYGRNVTKMDAFGCTSRGQAHRAGLWLIKTELLETQTVDFSVGAEGLRHVPGDVIEICDDDYAGISTGGRVLAVNSQTRTLTLDREITLPSSGTALISLVDGSGNPVSVEVQSVTDGVKVKVSRVPDGVAEYSVWELKLPTLRQRLFRCVSIRENDDGTYAITAVQHVPEKEAIVDNGAHFDGEQSGTVNGVTPPAVQHLTAEVTADSGEYQVLARWDTPKVVKGVSFLLRLTVTADDGSERLVSTARTTETTYRFTQLALGNYRLTVRAVNAWGQQGDPASVSFRIAAPAAPSRIELTPGYFQITATPHLAVYDPTVQFEFWFSEKQIADIRQVETSTRYLGTALYWIAASINIKPGHDYYFYIRSVNTVGKSAFVEAVGRASDDAEGYLDFFKGKITESHLGKELLEKVELTEDNASRLEEFSKEWKDASDKWNAMWAVKIEQTKDGKHYVAGIGLSMEDTEEGKLSQFLVAANRIAFIDPANGNETPMFVAQGNQIFMNDVFLKRLTAPTITSGGNPPAFSLTPDGKLTAKNADISGSVNANSGTLSNVTIAENCTINGTLRAEKIVGDIVKAASAAFPRQRESSVDWPSGTRTVTVTDDHPFDRQIVVLPLTFRGSKRTVSGRTTYSMCYLKVLMNGAVIYDGAANEAVQVFSRIVDMPAGRGNVILTFTLTSTRHSADIPPYTFASDVQVMVIKKQALGISVV
# notes: central fiber protein gpJ of bacteriophage lambda in the virion; domains HDII, HDII-insertion (with FNIII-A, residues 72-215), HDIII, HDIV (with a β-sandwich, residues 483-569), linker, FNIII-1, FNIII-2, three-helix bundle; source: lambda W60 phage grown on E. coli MG1655; virions purified (PEG 8000 precipitation, CsCl gradient)
# B3: adaptor protein gpW (natural protein, bacteriophage lambda)
# chain: MTRQEELAAARAALHDLMTGKRVATVQKDGRRVEFTATSVSDLKKYIAELEVQTGMTQRRRGPAGFYV
# notes: adaptor protein gpW of bacteriophage lambda, 68-residue protein, residues 4-68 resolved; domains: β-hairpin 23-36, two-α-helix bundle 4-22 and 37-54, C-arm 55-68; also called neck protein gpW; source: lambda W60 phage grown on E. coli MG1655; virions purified (PEG 8000 precipitation, CsCl gradient); copies: 12
# B4: tape measure protein gpH (natural protein, bacteriophage lambda, UniProt P03736 1-853, looked up)
# chain: MAEPVGDLVVDLSLDAARFDEQMARVRRHFSGTESDAKKTAAVVEQSLSRQALAAQKAGISVGQYKAAMRMLPAQFTDVATQLAGGQSPWLILLQQGGQVKDSFGGMIPMFRGLAGAITLPMVGATSLAVATGALAYAWYQGNSTLSDFNKTLVLSGNQAGLTADRMLVLSRAGQAAGLTFNQTSESLSALVKAGVSGEAQIASISQSVARFSSASGVEVDKVAEAFGKLTTDPTSGLTAMARQFHNVSAEQIAYVAQLQRSGDEAGALQAANEAATKGFDDQTRRLKENMGTLETWADRTARAFKSMWDAVLDIGRPDTAQEMLIKAEAAYKKADDIWNLRKDDYFVNDEARARYWDDREKARLALEAARKKAEQQTQQDKNAQQQSDTEASRLKYTEEAQKAYERLQTPLEKYTARQEELNKALKDGKILQADYNTLMAAAKKDYEATLKKPKQSSVKVSAGDRQEDSAHAALLTLQAELRTLEKHAGANEKISQQRRDLWKAESQFAVLEEAAQRRQLSAQEKSLLAHKDETLEYKRQLAALGDKVTYQERLNALAQQADKFAQQQRAKRAAIDAKSRGLTDRQAEREATEQRLKEQYGDNPLALNNVMSEQKKTWAAEDQLRGNWMAGLKSGWSEWEESATDSMSQVKSAATQTFDGIAQNMAAMLTGSEQNWRSFTRSVLSMMTEILLKQAMVGIVGSIGSAIGGAVGGGASASGGTAIQAAAAKFHFATGGFTGTGGKYEPAGIVHRGEFVFTKEATSRIGVGNLYRLMRGYATGGYVGTPGSMADSRSQASGTFEQNNHVVINNDGTNGQIGPAALKAVYDMARKGARDEIQTQMRDGGLFSGGGR
# notes: tape measure protein gpH of bacteriophage lambda in the virion; only a C-terminal α-helix modelled (residues 818-842 in the results, 818-849 in the methods); source: lambda W60 phage grown on E. coli MG1655; virions purified (PEG 8000 precipitation, CsCl gradient)
# B5: coat protein gpE (natural protein, bacteriophage lambda, UniProt P03713 1-341, looked up)
# chain: MSMYTTAQLLAANEQKFKFDPLFLRLFFRESYPFTTEKVYLSQIPGLVNMALYVSPIVSGEVIRSRGGSTSEFTPGYVKPKHEVNPQMTLRRLPDEDPQNLADPAYRRRRIIMQNMRDEELAIAQVEEMQAVSAVLKGKYTMTGEAFDPVEVDMGRSEENNITQSGGTEWSKRDKSTYDPTDDIEAYALNASGVVNIIVFDPKGWALFRSFKAVKEKLDTRRGSNSELETAVKDLGKAVSYKGMYGDVAIVVYSGQYVENGVKKNFLPDNTMVLGNTQARGLRTYGCIQDADAQREGINASARYPKNWVTTGDPAREFTMIQSAPLMLLADPDEFVSVQLA
# notes: major capsid (coat) protein gpE of bacteriophage lambda, as it stands in the mature virion; The introduction gives 415 copies in the head (cited); also called major capsid protein gpE; head protein gpE; source: lambda W60 phage grown on E. coli MG1655; virions purified (PEG 8000 precipitation, CsCl gradient)
# B6: distal tail protein gpM (natural protein, bacteriophage lambda, UniProt P03737 1-109, looked up)
# chain: MKTFRWKVKPGMDVASVPSVRKVRFGDGYSQRAPAGLNANLKTYSVTLSVPREEATVLESFLEEHGGWKSFLWTPPYEWRQIKVTCAKWSSRVSMLRVEFSAEFEQVVN
# notes: distal tail protein gpM of bacteriophage lambda; all 109 residues resolved; two conformers that differ in the E-loop; source: lambda W60 phage grown on E. coli MG1655; virions purified (PEG 8000 precipitation, CsCl gradient)
# B7: cementing protein gpD (natural protein)
# chain: T2 chain
# notes: cementing (decoration) protein gpD of bacteriophage lambda, trimers on the capsid shell of the mature virion; also called head protein gpD; source: lambda W60 phage grown on E. coli MG1655; virions purified (PEG 8000 precipitation, CsCl gradient)
# B8: stopper protein gpFII (natural protein, bacteriophage lambda)
# chain: MADFDNLFDAAIARADETIRGYMGTSATITSGEQSGAVIRGVFDDPENISYAGQGVRVEGSSPSLFVRTDEVRQLRRGDTLTIGEENFWVDRVSPDDGGSCHLWLGRGVPPAVNRRR
# notes: stopper protein gpFII of bacteriophage lambda, 117-residue protein, residues 4-117 resolved; domains: N-terminal α-helix 4-24, β-sandwich 25-41 and 63-107, β-hairpin 46-62, C-terminal loop 108-117; also called neck protein gpFII; source: lambda W60 phage grown on E. coli MG1655; virions purified (PEG 8000 precipitation, CsCl gradient)
# B9: portal protein gpB (natural protein, bacteriophage lambda, UniProt P03710 23-533, looked up)
# chain: GYHGGGSGFGGQLRSWNPPSESVDAALLPNFTRGNARADDLVRNNGYAANAIQLHQDHIVGSFFRLSHRPSWRYLGIGEEEARAFSREVEAAWKEFAEDDCCCIDVERKRTFTMMIREGVAMHAFNGELFVQATWDTSSSRLFRTQFRMVSPKRISNPNNTGDSRNCRAGVQINDSGAALGYYVSEDGYPGWMPQKWTWIPRELPGGRASFIHVFEPVEDGQTRGANVFYSVMEQMKMLDTLQNTQLQSAIVKAMYAATIESELDTQSAMDFILGANSQEQRERLTGWIGEIAAYYAAAPVRLGGAKVPHLMPGDSLNLQTAQDTDNGYSVFEQSLLRYIAAGLGVSYEQLSRNYAQMSYSTARASANESWAYFMGRRKFVASRQASQMFLCWLEEAIVRRVVTLPSKARFSFQEARSAWGNCDWIGSGRMAIDGLKEVQEAVMLIEAGLSTYEKECAKRGDDYQEIFAQQVRETMERRAAGLKPPAWAAAAFESGLRQSTEEEKSDSRAA
# notes: portal protein gpB of bacteriophage lambda in the mature virion; modelled without 23 N-terminal residues, 20 C-terminal residues and the loop 303-319; domains: wing 24-249 and 368-452, stem 250-279 and 343-367, clip 280-342, crown 453-511; source: lambda W60 phage grown on E. coli MG1655; virions purified (PEG 8000 precipitation, CsCl gradient); copies: 12
# B10: tail terminal protein gpU (natural protein, bacteriophage lambda, UniProt P03732 1-131, looked up)
# chain: MKHTELRAAVLDALEKHDTGATFFDGRPAVFDEADFPAVAVYLTGAEYTGEELDSDTWQAELHIEVFLPAQVPDSELDAWMESRIYPVMSDIPALSDLITSMVASGYDYRRDDDAGLWSSADLTYVITYEM
# notes: tail terminal protein gpU of bacteriophage lambda; all 131 residues modelled; O-loop 25-37, E-loop 45-58; also called tail terminator; source: lambda W60 phage grown on E. coli MG1655; virions purified (PEG 8000 precipitation, CsCl gradient)
# B11: insertion protein gpI (natural protein, bacteriophage lambda, UniProt P03730 1-223, looked up)
# chain: MAATHTLPLASPGMARICLYGDLQRFGRRIDLRVKTGAEAIRALATQLPAFRQKLSDGWYQVRIAGRDVSTSGLTAQLHETLPDGAVIHIVPRVAGAKSGGVFQIVLGAAAIAGSFFTAGATLAAWGAAIGAGGMTGILFSLGASMVLGGVAQMLAPKARTPRIQTTDNGKQNTYFSSLDNMVAQGNVLPVLYGEMRVGSRVVSQEISTADEGDGGQVVVIGR
# notes: insertion protein gpI of bacteriophage lambda in the virion; source: lambda W60 phage grown on E. coli MG1655; virions purified (PEG 8000 precipitation, CsCl gradient)
# Columns and labels:
# [1] = biological target: T1, tail tube protein gpV (bacteriophage …); test: cryo-EM structure; purified lambda virions; local reconstruction of the tail tube (RELION), 3.48 Å; settings: remark: other sources report otherwise
# [2] = biological target: the molecule itself; test: cryo-EM structure; purified lambda virions; local reconstruction of the tail tip complex with C3 symmetry (RELION), 3.44 Å
# [3] = biological target: the molecule itself; test: cryo-EM structure; purified lambda virions; local reconstruction of the gpB (portal) and gpW (adaptor) rings with 12-fold symmetry, 3.2 Å
# [4] = biological target: the molecule itself; test: cryo-EM structure; purified lambda virions; icosahedral reconstruction of the head, 3.5 Å
# coat protein gpE = biological target: B5; test: as above; settings: both partners purified
# [5] = biological target: T2, cementing protein gpD (bacteriophage …); test: as above; settings: remark: other sources report otherwise
# [6] = biological target: B10; test: cryo-EM structure; purified lambda virions; local reconstruction of the neck: gpFII, gpU and 2 proximal gpV rings, 3.5 Å; settings: both partners purified
# [7] = biological target: the molecule itself; test: as above
binder,measurement,setting,value
B1,stoichiometry N,[1],6
B2,stoichiometry N,[2],3
B3,stoichiometry N,[3],12
B4,stoichiometry N,[2],3
B5,binding result,[4],binds
B6,stoichiometry N,[2],6
B7,binding result,coat protein gpE,binds
same,stoichiometry N,[5],3
B8,binding result,[6],binds
same,stoichiometry N,[7],6
B9,stoichiometry N,[3],12
B10,stoichiometry N,[7],6
B11,stoichiometry N,[2],3
